Assay results from article PMC11677236.

Molecular target: pyruvate kinase M2 (PKM2), endogenous (human (endogenous in A375 and G361)) (UniProt P14618)
Experiment: native gel or EMSA; BN-PAGE of cell lysates with β-actin as loading control; A375 with TIPE interference, G361 with TIPE overexpression; dimer and tetramer bands of PKM2

Sequence of pyruvate kinase M2 (PKM2), endogenous, P14618 1-531 (enzyme; other documents disagree on this pair) (P14618 whole entry): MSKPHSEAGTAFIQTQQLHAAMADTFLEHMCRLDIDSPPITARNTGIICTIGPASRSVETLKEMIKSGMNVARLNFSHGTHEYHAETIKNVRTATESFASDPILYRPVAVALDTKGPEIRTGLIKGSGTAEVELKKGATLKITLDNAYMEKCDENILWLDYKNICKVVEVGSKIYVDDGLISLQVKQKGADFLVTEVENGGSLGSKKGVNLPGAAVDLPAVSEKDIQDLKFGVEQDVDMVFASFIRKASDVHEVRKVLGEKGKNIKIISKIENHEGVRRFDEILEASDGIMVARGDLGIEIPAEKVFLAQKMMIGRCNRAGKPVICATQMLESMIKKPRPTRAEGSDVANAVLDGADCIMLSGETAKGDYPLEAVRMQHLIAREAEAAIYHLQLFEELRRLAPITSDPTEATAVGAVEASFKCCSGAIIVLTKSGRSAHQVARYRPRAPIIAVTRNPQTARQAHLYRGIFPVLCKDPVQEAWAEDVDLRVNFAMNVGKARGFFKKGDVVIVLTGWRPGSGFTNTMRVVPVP

pyruvate kinase M2 (PKM2), endogenous, P14618 1-531 (enzyme; other documents disagree on this pair)
stoichiometry N: 2
